Data reported in article PMC2762204 (Cancer research, 2009).

Experiments:
[1] = target: FLAG-Sprouty2 co-expressed with active MEK:EE (phosphorylated) (mouse) (UniProt Q9QXV8); assay: pull-down
Myc-B-Raf wild-type = Myc-B-Raf wild-type (UniProt P15056 1-766); assay: co-IP
Myc-B-Raf wild-type, sequence (P15056 whole entry): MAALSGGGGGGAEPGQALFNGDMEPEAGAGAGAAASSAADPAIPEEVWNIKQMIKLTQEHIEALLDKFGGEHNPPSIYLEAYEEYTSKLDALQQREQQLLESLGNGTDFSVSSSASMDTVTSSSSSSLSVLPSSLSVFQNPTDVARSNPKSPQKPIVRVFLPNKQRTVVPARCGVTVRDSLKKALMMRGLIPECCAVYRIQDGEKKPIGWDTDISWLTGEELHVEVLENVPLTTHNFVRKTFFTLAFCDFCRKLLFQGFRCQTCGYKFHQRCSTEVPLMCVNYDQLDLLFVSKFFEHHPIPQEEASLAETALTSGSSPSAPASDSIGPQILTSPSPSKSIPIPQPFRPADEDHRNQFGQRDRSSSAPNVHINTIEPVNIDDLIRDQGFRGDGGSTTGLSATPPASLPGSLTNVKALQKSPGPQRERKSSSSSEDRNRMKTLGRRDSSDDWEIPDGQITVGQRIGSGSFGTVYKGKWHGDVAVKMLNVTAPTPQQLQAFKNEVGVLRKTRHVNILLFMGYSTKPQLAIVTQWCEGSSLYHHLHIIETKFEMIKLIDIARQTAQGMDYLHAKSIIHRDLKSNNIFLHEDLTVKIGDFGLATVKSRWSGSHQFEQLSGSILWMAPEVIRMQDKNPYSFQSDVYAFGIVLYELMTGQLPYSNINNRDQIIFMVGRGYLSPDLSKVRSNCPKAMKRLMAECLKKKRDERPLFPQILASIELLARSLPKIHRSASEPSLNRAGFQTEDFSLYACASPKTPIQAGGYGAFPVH

percent reduction of binding against Sprouty2 expressed without MEK:EE [1] [%] | fold change of B-Raf binding against wild-type Sprouty2 (Myc-B-Raf wild-type) [fold] | Molecule
40 |  | Recombinant human wild-type GST-B-Raf catalytic domain (domain or fragment)
 | ~2 | FLAG-Sprouty2 2A (S111 and S120 to alanines) (natural protein, mouse, UniProt Q9QXV8 1-315, looked up) MEARAQSGNGSQPLLQTAHDSGRQRGEPDPRDALTQQVHVLSLDQIRAIRNTNEYTEGPTVVPRPGLKPAPRPSTQHKHERLHGLPEHRQPPRLQPSQVHSSRAPLSRSIATVSSGSRSATRTSTSSSSSEQRLLGPSFSHGPAAADGIIRVQPKSELKPGDVKPLSKDDLGLHAYRCEDCGKCKCKECTYPRPLPSDWICDKQCLCSAQNVIDYGTCVCCVKGLFYHCSNDDEDNCADNPCSCSQSHCCTRWSAMGVMSLFLPCLWCYLPAKGCLKLCQGCYDRVNRPGCRCKNSNTVCCKVPTVPPRNFEKPT
 | ~3.5 | FLAG-Sprouty2 6A (all six serine sites to alanines) (natural protein, mouse, UniProt Q9QXV8 1-315, looked up) MEARAQAGNGSQPLLQTAHDSGRQRGEPDPRDALTQQVHVLALDQIRAIRNTNEYTEGPTVVPRPGLKPAPRPSTQHKHERLHGLPEHRQPPRLQPSQVHSSRAPLSRSIATVSSGSRSATRTSTSSSSSEQRLLGPSFAHGPAAADGIIRVQPKSELKPGDVKPLAKDDLGLHAYRCEDCGKCKCKECTYPRPLPSDWICDKQCLCSAQNVIDYGTCVCCVKGLFYHCSNDDEDNCADNPCSCSQSHCCTRWSAMGVMSLFLPCLWCYLPAKGCLKLCQGCYDRVNRPGCRCKNSNTVCCKVPTVPPRNFEKPT
